Source: the DeepSol protein solubility set

Assay: soluble on expression in E. coli; label from the status in PepcDB or PDB records

Row | Sequence | soluble on expression in E. coli
1 | MVEAIIFDMDGVLFDTEKYYYDRRASFLGQKGISIDHLPPSFFIGGNTKQVWENILRDEYDKWDVSTLQEEYNTYKQNNPLPYKELIFPDVLKVLNEVKSQGLNIGLASSSVKADIFRALEENRLQAFFDIVLSGEEFKESKPNPEIYLTALKQLNVQASRALIIEDSEKGIAAGVAADVEVWAIRDNLFGMDQSAAKGLLDSLTDVLDLIK | not soluble
2 | MVEKPDINYQNKNVLHEINICYLGIMNKSLIALGAQTARRFLSSSSKNTIGGGDANRADTGVLDGYHINPLEESDMTDRSRISMLSTEMLEAKQIGVRGLSCYGFRLLDGTFLYGPIALFPKTALSWRVPTPEDITPRSLALFAALEPKIDILVLGVGDKKNIDKVRASVAPFLREHKIGLEIMDTEDAIATFNFLNAEGRYVGAALYPPDDMVVTDKEYGRALALLKGWDTVEENPLLTGLSDTINGAEDLVKRLWSGDEKSWQSARQKVLESPSEREERMQQEMNDKEKKRIE | not soluble
3 | MVEVVSVREHDRWRGVYVVELEDGSLRIATKNLVPGQRVYGERIFRYNGEEYREWNAYRSKLAAALLKGLIELPVKEGDRILYLGIASGTTASHMSDIIGPRGRIYGVEFAPRVMRDLLTVVRDRRNIFPILGDARFPEKYRHLVEGVDGLYADVAQPEQAAIVVRNARFFLRDGGYMLMAIKARSIDVTTEPSEVYKREIKTLMDGGLEIKDVVHLDPFDRDHAMIYAVMRR | soluble
4 | MVFEEFISTELKKEKKAFTEEFKEEKEINDNSNLKNDLLKEELQEKARIAELESRILKLELEKKELERENLQLMKENEILRRELDRMRVPPLIVGTVVDKVGERKVVVKSSTGPSFLVNVSHFVNPDDLAPGKRVCLNQQTLTVVDVLPENKDYRAKAMEVDERPNVRYEDIGGLEKQMQEIREVVELPLKHPELFEKVGIEPPKGILLYGPPGTGKTLLAKAVATETNATFIRVVGSELVKKFIGEGASLVKDIFKLAKEKAPSIIFIDEIDAIAAKRTDALTGGDREVQRTLMQLLAEMDGFDARGDVKIIGATNRPDILDPAILRPGRFDRIIEVPAPDEKGRLEILKIHTRKMNLAEDVNLEEIAKMTEGCVGAELKAICTEAGMNAIRELRDYVTMDDFRKAVEKIMEKKKVKVKEPAHLDVLYR | soluble
5 | MVFMEENKKYRILGTLLYYVLRIISSTLKIEIVNKYGIDMQRPHIYGFWHSKLFITPIFFRNVEKKLAMSSPTKDGELISVPLEKMGYILVRGSSDKNQISSTISLLKYLKKGYSIGTPLDGPKGPKEKPKKGLLYLSQKTSVPLVPVGISYSKKWILKKTWDQFEIPKPFSKVKIFLGEPILIDDDEDLDKYTEIVKNGINSLNNQIEFLEHHHHHH | not soluble
6 | MVFRCHYILVLEGFITQKNRLEHGGKDAGVEPPPYSNAAHHLTPWNDKRAIEAQELLKEFGIHHDSAANGVFLPYKVNEYVTTEVLHIGNHCTDYMKEVTKVLKEVKEYGGTQADAVAALHDIRIRLLDGSLKLNSPK | not soluble
7 | MVGLSTGSWVKVLTSMPNLESITVVELNPAYVQLASSYPAMADLLKDNRVNIITDDGRRWLNKNPDQKFDLILMNTTFHWRNYATNLLSQQFLTVTKQHLTDNGFIYFNTTDALDAYKTSQAVFPHVYAYENMSLASLKPIAVPTTPEVHRALANLKWHDGRHIFNSPAEIAEGTARIVNTPLIPYKDIDFSPLKRPAKIITDTNMITEYKYGRLNTVINK | not soluble
8 | MVGYAEPVLIERQSVVAAPAEQVWQRVVTPEGINDELRPWMTMSVPRGAKGMTVDTVPIGAPIGRAWLRLFGVLPFDYDRLSIAELEPGRRFREDSTMLSMRQWQHERTVTPEGDTKTIVRDRITFQTRAGLRFAAPLIAAGLRALFGHRHRRLQRHFAQGLEHHHHHH | soluble
9 | MVHGKLKEAAEVTGSVSLEALEEVQVGENIEVGVGIDELVNAEAFAYDFTLNYDENAFEYVEAISDDGVFVNAKKIEDGKVRVLVSSLTGEPLPAKEVLAKVVLRAEAKTEGSNLSVTNSSVGDGEGLVHEIAGTEKTVNIIEGTSPEIVVNPVRDFKASEINKKNVTVTWTEPETTEGLEGYILYKDGKKVAEIGKDETSYTFKKLNRHTIYNFKIAAKYSNGEVSSKESLTLRTAR | soluble
10 | MVIGQKVLLARIPKMGDNYSTYLLDIEGTVCPISFVKETLFPYFTNKVPQLVQQDTRDSPVSNILSQFHIDNKEQLQAHILELVAKDVKDPILKQLQGYVWAHGYESGQIKAPVYADAIDFIKRKKRVFIYSSGSVKAQKLLFGYVQDPNAPAHDSLDLNSYIDGYFDINTSGKKTETQSYANILRDIGAKASEVLFLSDNPLELDAAAGVGIATGLASRPGNAPVPDGQKYQVYKNFETL | not soluble
11 | MVIRMAYSELYWQKEEVMPKKELEELQLKRLRWVVRHAYENVAHYRRKLKEAGVHPDDIKKREDIAKIPFTTKKDFAENYPFGLFAVPKEEIVRLHTSSGTTGKPKVVGYTANDLENWINLVARCLYMVGVRKHDIFQNMANYAFFTGGLGIHDGAERIGAMVIPAGVGNTERQVRCMADFGTTAIHSTPSYALHVKEVAEELGVDDKLSLRIGCFGAEPWSENTRKRLEDAFNIKAFDSYGLSEMNGPGVAFECEEQHGLHIWADHYFIEIIDPQTGEPLSEGEKGELVLTPLTKEALPVLRYRTGDITYIMDDECSCGRTHPKIHRILGRSDDMIIVRGINVFPSQIEHVLMQIPEVGDHFQVVITRNGTLDEITVRVEVRDELFTGELFDLQRLQQKVQRELQKELGLRTNVELVEKGTIERSKGKAKRVLDLREEL | not soluble
12 | MVISMSDLTFEDVKKEISALDKLSDLEAKKYADTGGYADVIARANNLKTTQLRKFFSAIRSMEKKADSWKSIEADFYLLKPQLANARGRDLIPEGFYEVMKKMMDKVDRGDDDEKIENFRVFVRFLESIVAYHKFYNPRS | not soluble
13 | MVITDTAAWVQSQSRSIVDFISAPNSNSSLPPYVQIGAAAAVTMGLGYYLSKSSSSTSGSYSFSGVTYSGNVKPLVDPMNQSRILPDGSRISAYLKDDELQAFLFEDARTLYQGVRRGARLSNNGPMLGRRVKQSDGSIPYVWESYNTILERADNVSVAFRELGVPTGNAENIGIYSKNRAEWIITEFATYNYSNVIVPIYETLGSEASIFILNQAEIKIVVCDDISKATGLLKFKEQCPSLSTLVVMEPVTDELKTTASSLGVEVLTFEDLEKIGKNAKTRPAHIPPTPEDLATICYTSGTTGTPKGVMLTHANVIADGVCMDFFKHSGIAATDSMISFLPLAHMLERVIESVCFCVGAKVGFYRGDIRVLAEDIKELKPTVVPVVPRVLNRLYDKVMSEVNKSTLKKMLFDFAISYKARDMANFNIRNDGFFDNLVFKKIREGFGGRVRLMITGSAPLSTNVLTFVRAAMGCVVVEGYGQTECVAACTVSMEGDSLAGHVGMVIPSCQIKLVDVPELNYYAKDQAGEVCVKGHIIFKGYYKNEQQTKETIDEDGWLHTGDIGRWTPEGTLKIVDRKKHIFKLSQGEYVAPEKIENIYVRSKYVAQSFVHGESLKTCLIAIVVPDAEVLVPAMADQGIKGTFEELCNNDAVKKAILDDMVAVGKKAGLFSFEQVRDISLSAEQFSVENDLLTPTLKSKRPKLKAHYSKQLDAMYSKLP | not soluble
14 | MVITKIVGHIDDLSHQIKKVDWLEVEWEDLNKRILRKETENGTDIAIKLENSGTLRYGDVLYESDDTLIAIRTKLEKVYVIKPQTMQEMGKMAFEIGNRHTMCIIEDDEILVRYDKTLEKLIDEVGVSYEQSERRFKEPFKYRGHQH | soluble
15 | MVKAISTEKDLLLKVDKSFPWETFRSKLKSLYSKKPKWNVISLLKVLLIKLIFDISWNNLEGEIRDSKMFMDFLGGKIPPKSTVFSFYKKLQQTVIQEGETMRTTLMDELNKALDKAISEYREKGFELEVGREKKTEKVSKGTYPPKIDTFLPVKPYPREKRSLSKTGSLEHHHHHH | soluble
16 | MVKKAAATSKQATYHSDEIEMKEEVVLNTYDECTDYVEYDDTKQFDINEYCDQIQVAMVNESDDGMTLEFDITRIEAPIANALRRVLIAEVPTMALEKIYLYQNTSVIQDEVLCHRLGLLPLRVDPRGFQFPKEKVVGINEKGVDCDEEPEGDPAKNLIFKINVSCTKNRNAVPTATDPKQLYHNSSVYSRAFEWVPIADQKTQFTEEAHPRMVSDDILVAKLRPGQEIEASCHAVKGIGRDHAKFSPVATASYRLLPTIRLNAEISGEAAERLKSVFSEGVIAIEKKGAKRIAVVKDARKDTCSRNVFRHEDLSKVVQLGKNKQHFIFSVESTGALKSSELVVEACKVMEIKCRSLRKQIEALIQ | not soluble
17 | MVKKITVYTAFGQFLKMVELQMEQEMEKMNEIETDKLPIDHQLSDYQNNIESGNDRQVQSCPVDVSIPKEVMKCASCPLLCFNCSVQMPVSPVPTTIESRKINETTQLMMEFWKIVASKSEEEKLPSLFENVEGLFSVPFSTFGTWDDDTLSGVTSLNFEKSDEQLSEQDDDKTTVWSSNFPSAHVLTVYENSEQKTDEMADDEMSDTTSSFLSTLSTTMSAQVPALHLLQRVQLQRSVIKKQKKIIDSFSELQNLNKKLADLRKKHRD | not soluble
18 | MVKKVLLINGPNLNLLGTREPEKYGTTSLSDIEQAAIEQAKLKNNDSEVLVFQSNTEGFIIDRIHEAKRQGVGFVVINAGAYTHTSVGIRDALLGTAIPFIEVHITNVHQREPFRHQSYLSDKAVAVICGLGVYGYTAAIEYALNY | soluble
19 | MVKPMHLFAVVDALEQAQQFQQVLASRDVSTELVQIEQLNARFLRHHPELALCVDLDGLWLSANGMKMQPDWQAEIPRLKRASLKSEMIARACQINEQPSLIDATAGLGHDSLLMAYLGAHVTLVERHPVLFTLLEDAKSKAENDPFLSKYMQRIHLIFQDAHYYLQQCNQDDRKVDVIYLDPMFPQRDQHHQVIKKQAQVKKQMQLLHLLLPEDGEMDLGDQLLPLAQQIASRVVVKRPKHAVFLNEQQPDHQWQGDACRFDAYFQISM | not soluble
20 | MVLADLGRKIRNAIGKLGQSTVINEGELDLMLKEVCTALIESDVHIRLVKQLKDNVKKAINFEEIVGGANKRRYIQKTVFNELLKLVDPGVTPFTPTKGRRNVFMFVGLQGSGKTTTCTKMAYYYQRKGWKTCLICADTFRAGAFDQLKQNATKARIPFYGSYSEIDPVKIAAEGVEKFTQEGFEIIIVDTSGRHKQEASLFEEMLQVSNAVTPDNVVFVMDASIGQACEAQARAFSQTVDVASVIITKLDSHAKGGGALSAVAVTKSPVIFIGTGEHIDDFEIFKPKSFVQKLLGMGDIAGLVDMVNDIGIQDNKELVGRLKQGQFTLRDMYEQFQNIMKMGPFSQIMGMIPGFGSEFMTKGNEQESVNRLKRMMTVMDSMSDKELDHPKASELFTKEPNRVARVARGSGSHQQEVRDLLAQYKKFSDVVKKIGSIKGLFNGKNGDINPKNMNPAKMAQLNQQMAKMMDPRVLQQMGGMGGLQNMMQQMARAGKM | not soluble
21 | MVLLLRYRSLTINLTPLIPKSQKFHTLQSFRNPNFISIPKISASTNNPTTTTNRSISDATKFAKSVLFIPPGVEIEELTDDMVLPGSNIVIGPFAGHSQIKEVEFVKSSARARDCPKDDRPEIAILGRSNVGKSSLINCLVRKKEVALTSKKPGKTQLINHFLVNKSWYIVDLPGYGFAKVSDAAKTDWSAFTKGYFLNRDSLVCVLLLIDASVPPQKIDLDCANWLGRNNVPMTFVFTKCDKMKATKGKRPDENIKAFQQIIRENFKVHPPWILTSSVSGLGRDELLLHMSQLRNYWDQ | not soluble
